Measured values taken from patent publication US20050170504.

Target: TmHU (HU protein) (Thermotoga maritima) (UniProt P36206)
Experiment: SPR
Settings: transition midpoint of Hill curve, 50 mM sodium phosphate pH 7.5, 100 mM NaCl

Sequence of UniProt P36206 (P36206 other isoform, or with tags, fused parts or gaps): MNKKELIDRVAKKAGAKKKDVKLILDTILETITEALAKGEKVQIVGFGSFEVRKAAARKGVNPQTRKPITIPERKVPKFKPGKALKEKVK

For 23 bp dsDNA fragment, the Kd (Hill coefficient 1.3) was 73 nM.
56 bp dsDNA fragment gave a Kd (Hill coefficient 7.6) of 73 nM.
